Results on three molecules are retold here after patent US20160031958A1 (OREGON HEALTH AND SCIENCE UNIVERSITY, published 2016).

The target in assay [1] is T1, HA-REST E1009A/S1013A/S1024A/S1027A/S1030A (human, UniProt Q13127 1-1097).
T1 construct: mature; Expressed in HEK293T cells and tested in cell extracts; also called E1009A/S1013/24/27/30A; REST degron mutant; not shown: HA tag
T1 sequence (looked up): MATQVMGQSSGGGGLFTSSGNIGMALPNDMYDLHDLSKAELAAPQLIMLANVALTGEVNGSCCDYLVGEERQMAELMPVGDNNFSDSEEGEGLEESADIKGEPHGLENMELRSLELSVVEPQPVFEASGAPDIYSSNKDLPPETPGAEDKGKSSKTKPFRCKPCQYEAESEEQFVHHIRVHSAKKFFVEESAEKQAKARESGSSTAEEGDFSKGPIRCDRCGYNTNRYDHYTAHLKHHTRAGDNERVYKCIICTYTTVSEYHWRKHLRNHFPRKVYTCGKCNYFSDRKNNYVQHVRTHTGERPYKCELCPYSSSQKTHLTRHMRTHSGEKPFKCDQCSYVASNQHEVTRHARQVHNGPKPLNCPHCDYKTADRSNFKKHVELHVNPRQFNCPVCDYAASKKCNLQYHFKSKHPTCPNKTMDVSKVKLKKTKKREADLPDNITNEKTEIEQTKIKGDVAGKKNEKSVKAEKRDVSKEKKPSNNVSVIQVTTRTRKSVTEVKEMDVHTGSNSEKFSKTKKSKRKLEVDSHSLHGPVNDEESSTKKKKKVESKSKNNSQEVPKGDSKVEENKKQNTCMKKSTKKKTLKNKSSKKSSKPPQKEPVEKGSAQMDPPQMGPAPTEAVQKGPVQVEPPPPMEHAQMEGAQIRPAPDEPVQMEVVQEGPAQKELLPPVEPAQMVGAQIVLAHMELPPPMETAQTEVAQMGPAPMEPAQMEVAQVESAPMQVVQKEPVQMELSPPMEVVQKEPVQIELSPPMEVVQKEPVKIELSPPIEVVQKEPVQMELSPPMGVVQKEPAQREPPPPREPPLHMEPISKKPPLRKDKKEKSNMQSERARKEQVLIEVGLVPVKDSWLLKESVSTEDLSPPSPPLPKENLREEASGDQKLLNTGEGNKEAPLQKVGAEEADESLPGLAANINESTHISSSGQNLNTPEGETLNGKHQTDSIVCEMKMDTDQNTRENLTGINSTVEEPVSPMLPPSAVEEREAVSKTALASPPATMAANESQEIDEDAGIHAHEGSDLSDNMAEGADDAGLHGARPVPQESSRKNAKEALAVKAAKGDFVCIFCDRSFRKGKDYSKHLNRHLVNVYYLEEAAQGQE
The experiment in a line: GST pull-down on glutathione agarose from co-transfected HEK293T cells, Western blot. On the procedure: HA-REST cDNAs were transfected into HEK293T cells along with GST-βTrCP, and FLAG-Dominant Negative Cull to stabilize REST. Cell extracts were collected on glutathione agarose and probed with anti-HA or anti-GST antibodies.
Whole cell lysates were prepared and immunoprecipitated following the procedures in Ballas N et al, 2001 supra and Nesti E et al, Mol Biol Cell 15, 4073-4088 (2004); incorporated by reference herein. Western blots were performed by standard procedures using antibodies described below and analyzed using anti IgG conjugated to infrared dyes (ThermoFisher) on an Odyssey® infrared fluorescence imager (LiCor). For detecting phosphorylated REST at S861/S864, cell extracts were prepared lacking phosphatase inhibitors. For phosphatase treatment, 75 μg of total protein was treated with 600 U lambda phosphatase (New England Biolabs) or with buffer alone at 30° C. for 1 h, according to the manufacturer's protocol. Thirty-five μg of treated protein were resolved by SDS-PAGE and Western blotted with the non-phospho-depleted anti REST phospho antibody (rabbit #101) at 1:500 in 3% BSA/1×TBS-0.5% Tween-20® overnight at 4° C., followed by anti-rabbit IgG-IR680 conjugated secondary antibody (Thermo Fisher) at 1:15000 in 5% milk/TBS-Tween for 1 hour at room temp. Infrared fluorescence was detected on the Odyssey® imager (LiCor) in the 700 nm channel. […]
In general terms: In western blotting, separated proteins are transferred to a membrane and probed.

Assay [2] has as its target T2, Pin1 (peptidyl-prolyl cis/trans isomerase), human (human, UniProt Q13526 1-163).
T2 construct: also called Human Pin1
The assay is described as follows: co-immunoprecipitation from transfected HEK293T cells, Western blot. On the procedure: FIG. 4A is an image of a Western blot of co-immunoprecipitation analysis showing Pin1 is present in REST (810-910) immunoprecipitates in a phospho-dependent manner. HEK293T cells were transfected with Pin1 cDNA and either WT or mutant (S861A/S864A) FLAG-REST (810-910) or FLAG-control (595-694) peptide cDNAs (FIG. 3). After 48 hours, the cells were extracted and immunoprecipitated. Western blots were probed with the indicated antibodies.
To confirm this, HEK cells were transfected with FLAG-Pin1 and cDNAs encoding the 100 amino acid peptides described above containing an S861/S864 or an S861A/S864A sites. Pin1 was present in immunocomplexes of unmutated REST (810-910) reporter peptides, but not phosphorylation-resistant mutant S861A/S864A peptides (FIG. 4A). […]
Whole cell lysates were prepared and immunoprecipitated following the procedures in Ballas N et al, 2001 supra and Nesti E et al, Mol Biol Cell 15, 4073-4088 (2004); incorporated by reference herein. Western blots were performed by standard procedures using antibodies described below and analyzed using anti IgG conjugated to infrared dyes (ThermoFisher) on an Odyssey® infrared fluorescence imager (LiCor). […]

The next assay concerns the target T3, HA-REST S861A/S864A (human, UniProt Q13127 1-1097).
T3 construct: mature; Expressed in HEK293T cells and tested in cell extracts; also called mutant S861A/S864A REST; not shown: HA tag
T3 sequence (looked up): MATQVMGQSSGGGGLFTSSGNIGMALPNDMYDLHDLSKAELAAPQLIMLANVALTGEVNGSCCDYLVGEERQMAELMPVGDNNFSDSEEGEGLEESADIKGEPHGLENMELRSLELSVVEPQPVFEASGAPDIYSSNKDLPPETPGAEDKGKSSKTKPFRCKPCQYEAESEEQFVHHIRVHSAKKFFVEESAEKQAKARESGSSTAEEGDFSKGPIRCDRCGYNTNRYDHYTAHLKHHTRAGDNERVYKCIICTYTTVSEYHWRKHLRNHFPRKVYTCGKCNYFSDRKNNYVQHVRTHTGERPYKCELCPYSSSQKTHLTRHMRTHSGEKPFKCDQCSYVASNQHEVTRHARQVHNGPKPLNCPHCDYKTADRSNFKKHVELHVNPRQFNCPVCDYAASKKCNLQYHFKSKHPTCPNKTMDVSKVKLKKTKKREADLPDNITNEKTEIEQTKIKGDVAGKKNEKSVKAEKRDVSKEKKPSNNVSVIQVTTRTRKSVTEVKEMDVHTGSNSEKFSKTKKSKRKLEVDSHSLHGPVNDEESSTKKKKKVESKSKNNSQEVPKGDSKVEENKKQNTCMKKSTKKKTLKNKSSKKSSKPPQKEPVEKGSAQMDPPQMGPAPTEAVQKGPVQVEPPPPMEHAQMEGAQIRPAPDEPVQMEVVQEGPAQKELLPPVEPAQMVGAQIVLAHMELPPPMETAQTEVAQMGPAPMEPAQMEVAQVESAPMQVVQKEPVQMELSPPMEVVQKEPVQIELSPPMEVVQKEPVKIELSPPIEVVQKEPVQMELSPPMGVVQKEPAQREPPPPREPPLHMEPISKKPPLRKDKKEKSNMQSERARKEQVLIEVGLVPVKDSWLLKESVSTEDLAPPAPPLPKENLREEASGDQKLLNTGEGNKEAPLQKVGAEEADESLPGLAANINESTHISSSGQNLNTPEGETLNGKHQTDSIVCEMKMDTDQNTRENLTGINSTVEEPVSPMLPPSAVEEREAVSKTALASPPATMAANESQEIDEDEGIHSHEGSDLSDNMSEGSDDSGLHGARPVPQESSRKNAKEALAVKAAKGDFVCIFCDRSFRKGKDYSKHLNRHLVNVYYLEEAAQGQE
The experiment in a line: FLAG immunoprecipitation from transfected HEK293T cells, Western blot. From the text:
CTDSP1 was first identified as a nuclear phosphatase targeting the C-terminus of RNA polymerase II (R HR et al, BMB Rep 47, 192-196 (2014); Feng Y et al, Biochem Biophys Res Commun 397, 355-360 (2010); and Zhang Y et al, Mol Cell 24, 759-770 (2006); all of which are incorporated by reference herein). Subsequently it was implicated in REST repression of neuronal gene expression in P19 embryonal carcinoma cells that have the capacity to differentiate into neurons (Visvanathan J et al, Genes Dev 21, 744-749 (2007); incorporated by reference herein). […] REST was detected in FLAG-immunocomplexes only when the site was unmutated or double-substituted with glutamate, a phosphorylation-mimic.
Whole cell lysates were prepared and immunoprecipitated following the procedures in Ballas N et al, 2001 supra and Nesti E et al, Mol Biol Cell 15, 4073-4088 (2004); incorporated by reference herein. Western blots were performed by standard procedures using antibodies described below and analyzed using anti IgG conjugated to infrared dyes (ThermoFisher) on an Odyssey® infrared fluorescence imager (LiCor). […] Infrared fluorescence was detected on the Odyssey® imager (LiCor) in the 700 nm channel. […]

T2 sequence (Q13526 whole entry): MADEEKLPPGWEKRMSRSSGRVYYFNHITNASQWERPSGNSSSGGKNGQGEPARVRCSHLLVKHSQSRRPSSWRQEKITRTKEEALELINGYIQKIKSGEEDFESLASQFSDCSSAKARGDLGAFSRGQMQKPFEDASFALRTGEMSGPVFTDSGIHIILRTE

B1: GST-βTrCP (other, UniProt Q9Y297 1-605, looked up)
chain: MDPAEAVLQEKALKFMCSMPRSLWLGCSSLADSMPSLRCLYNPGTGALTAFQNSSEREDCNNGEPPRKIIPEKNSLRQTYNSCARLCLNQETVCLASTAMKTENCVAKTKLANGTSSMIVPKQRKLSASYEKEKELCVKYFEQWSESDQVEFVEHLISQMCHYQHGHINSYLKPMLQRDFITALPARGLDHIAENILSYLDAKSLCAAELVCKEWYRVTSDGMLWKKLIERMVRTDSLWRGLAERRGWGQYLFKNKPPDGNAPPNSFYRALYPKIIQDIETIESNWRCGRHSLQRIHCRSETSKGVYCLQYDDQKIVSGLRDNTIKIWDKNTLECKRILTGHTGSVLCLQYDERVIITGSSDSTVRVWDVNTGEMLNTLIHHCEAVLHLRFNNGMMVTCSKDRSIAVWDMASPTDITLRRVLVGHRAAVNVVDFDDKYIVSASGDRTIKVWNTSTCEFVRTLNGHKRGIACLQYRDRLVVSGSSDNTIRLWDIECGACLRVLEGHEELVRCIRFDNKRIVSGAYDGKIKVWDLVAALDPRAPAGTLCLRTLVEHSGRVFRLQFDEFQIVSSSHDDTILIWDFLNDPAAQAEPPRSPSRTYTYISR
notes: also called βTrCP-GST fusion; bTrCP; not shown: GST
As to B1, the binding result in assay [1] is “no binding”.

B2: FLAG-REST (810-910)-GFP reporter peptide S861A/S864A (peptide)
chain: ISKKPPLRKDKKEKSNMQSERARKEQVLIEVGLVPVKDSWLLKESVSTEDLAPPAPPLPKENLREEASGDQKLLNTGEGNKEAPLQKVGAEEADESLPGLA
notes: also called mutant (S861A/S864A) FLAG-REST (810-910); phosphorylation-resistant mutant S861A/S864A peptide; not shown: N-terminal FLAG tag with linker; C-terminal eGFP tag (pEGFP-N1)
As for B2, the binding result in assay [2] is on record as “no binding”.

B3: FLAG-CTDSP1 (enzyme, not shown: small tags and cut ends)
chain: MDSSAVITQISKEEARGPLRGKGDQKSAASQKPRSRGILHSLFCCVCRDDGEALPAHSGAPLLVEENGAIPKQTPVQYLLPEAKAQDSDKICVVIDLDETLVHSSFKPVNNADFIIPVEIDGVVHQVYVLKRPHVDEFLQRMGELFECVLFTASLAKYADPVADLLDKWGAFRARLFRESCVFHRGNYVKDLSRLGRDLRRVLILDNSPASYVFHPDNAVPVASWFDNMSDTELHDLLPFFEQLSRVDDVYSVLRQPRPGS
notes: also called C-terminal domain small phosphatase
In the case of B3, the binding result with HA-REST S861A/S864A is recorded as “no binding”.
